Kd and IC50 data for 3 substances are collected here from patent US20140057857A1.

Assay [1] deals with GST-Mcl-1. The assay is described as follows: fluorescence polarization assay, labeled peptide on GST-Mcl-1. Background: Polarisation of emitted light reports the rotation of a fluorescent probe.
For a further assay, the target named is GST-Bcl-xL. Briefly: fluorescence polarization assay, labeled peptide on GST-Bcl-xL.
Assay [2] addresses GST-Mcl-1. Briefly: competitive FP assay on Mcl-1.

As usually defined, the Kd is a measure of binding affinity in units of concentration. A low value points to a tighter complex. In general, IC50 refers to the point on the concentration scale where inhibition reaches its midpoint. Higher therefore signals lower potency.

Bak (fluorescein-labeled Bak peptide): the values for the Kd with GST-Mcl-1 [1] and with GST-Bcl-xL were 0.127 µM and 0.014 µM, respectively.

In the case of Bim (fluorescein-labeled Bim peptide), the Kd in the assay with GST-Mcl-1 [1] turned out to be 0.0025 µM; with GST-Bcl-xL, 0.0014 µM.

Ubiquitin-Noxa fusion protein yielded an IC50 with GST-Mcl-1 [2] of 0.16 µM.
